# In paper PMC3179271:
# Key:
# [1] = target: FLAG-V5-Blow (Drosophila); assay: co-IP
# [2] = target: FLAG-V5-WASP (Drosophila); assay: co-IP
substance,measurement,setting,value
FLAG-Sltr (natural protein),Kd,[1],0.0481 µM
same,Kd,[2],0.0067 µM
